Source: US10426871B2, “Nanostructure surface coated medical implants and methods of using the same” (The Regents of the University of California, priority 2007, dated 2019)

Tests used:
[1] = XPS of protein-loaded and protein-adsorbed nanotube surfaces; assay type: physicochemical; conditions: Adsorbed (control)
Method: To evaluate the differences in amounts of protein in nanotubes, X-ray photoelectron spectroscopy (XPS) analysis was carried out. XPS is a surface sensitive technique which can detect changes in surface composition for up to 2-20 atomic layers, depending on the material. Since the nanotubes are approximately 400 nm long, XPS can be used to verify the differences in surface concentrations due to different amounts of BSA and LYS loaded. The loaded nanotube surfaces along with adsorbed surfaces were mounted on an XPS stage. Three spots per sample were analyzed. The analysis was conducted on a SSI S-Probe Monochromatized XPS Spectrometer which uses an Al-Kα-X-ray source (1486.6 eV) with an Omni Focus III small area lens and multichannel detector. A concentric hemispherical analyzer (CHA) was operated in the constant analyzer transmission mode to measure the binding energies of emitted photoelectrons. The binding energy scale was calibrated by the Au4f7/2 peak at 83.9 eV, and the linearity was verified by the Cu3p1/2 and Cu2p3/2 peaks at 76.5 and 932.5 eV respectively. Survey spectra were collected from 0 to 1100 eV with pass energy of 160 eV, and high-resolution C1s spectra were collected for each element detected with pass energy of 10 eV. Survey and high resolution spectra were collected at a 65° take off angle, defined as the angle spanned by the electron path to the analyzer and the sample surface. All spectra were referenced by setting the hydrocarbon C1s peak to 285.0 eV to compensate for residual charging effects. Data for percent atomic composition and atomic ratios were calculated using the manufacturer supplied sensitivity factor.
To evaluate the differences in amounts of protein in nanotubes, X-ray photoelectron spectroscopy (XPS) analysis was carried out. […] LYS and BSA adsorbed surfaces were used as controls. There is a steady increase in N/C ratios with increasing amounts of protein loaded into the nanotubes. A more precise way to characterize protein on the surface is to determine the fraction of C—N and N—C═O peaks in overall C1s peak. The C—N and N—C═O peaks are characteristic of proteins which are at a shift of 0.8 eV and 1.8 eV respectively from the C—C peak (285 eV). Thus, high resolution C1s scans were taken and the peak fit analysis software provided with the XPS instrument was used to determine % of C—N and N—C═O in the overall C1s peak (Table 3). A convolution of Gaussian components was assumed for all the peaks. There is an increase in the intensity for the […], C—N and N—C═O peaks with increasing amounts of proteins loaded into the nanotubes.

[2] = cited from earlier work
[3] = Release of proteins from nanotubes into PBS (Micro-BCA); assay type: physicochemical; set-up: time point at which all the protein is released from the nanotubes: unit: min; conditions: for time point at which all the protein is released from the nanotubes: PBS, room temperature, 70 rpm
Method: In order to release the proteins from the nanotubes, the surfaces were immersed in 500 μl of PBS in a 24-well plate at room temperature with orbital shaking at 70 rpm. 200 μl of samples were taken after specific intervals of time to determine the release kinetics. Samples were collected periodically for up to 120 minutes. The solution was replaced with 200 μl of fresh PBS every time the samples were taken. The samples were analyzed for protein content using a commercially available Micro-BCA assay kit and the concentration was adjusted for dilutions due to replacement of fresh PBS.

| Substance | C—C fraction of overall C1s peak (high resolution XPS) [1] | C—N fraction of overall C1s peak (high resolution XPS) [1] | N/C ratio (XPS survey scan) [1] | N—C═O fraction of overall C1s peak (high resolution XPS) [1] | Net charge @ pH 7.0 [2] | time point at which all the protein is released from the nanotubes ([3]; 200 μg loaded) | time point at which all the protein is released from the nanotubes ([3]; 400 μg loaded) | time point at which all the protein is released from the nanotubes ([3]; 800 μg loaded) | release from the nanotubes compared to that of BSA (in words) [3] |
| --- | --- | --- | --- | --- | --- | --- | --- | --- | --- |
| Bovine Serum Albumin: model protein, larger molecule with net negative charge, loaded into titania nanotubes | 0.81 | 0.11 | 0.123 | 0.08 | −18 | 25 | 50 | 65 | – |
| Lysozyme: model protein, smaller in size with net positive charge, loaded into titania nanotubes | 0.73 | 0.22 | 0.215 | 0.03 | +7 | 36 | 85 | 110 | much slower |
